From US20150376261A1 (VIB VZW, published 2015)

Tests used:
β2AR365N = target: T1, β2AR365N (human, UniProt P07550 2-365); assay: not described
T1 construct: also called non-fused β2AR365N; human β2 adrenergic receptor Gly2 to Gly365, N187E

[1] = target: T2, human mu-opioid receptor (hMor1) (human, UniProt P35372 6-360); assay: cell-based or functional assay
[2] = target: T2, human mu-opioid receptor (hMor1); assay: not described

T2 sequence (P35372 6-360, tags or fused parts left off): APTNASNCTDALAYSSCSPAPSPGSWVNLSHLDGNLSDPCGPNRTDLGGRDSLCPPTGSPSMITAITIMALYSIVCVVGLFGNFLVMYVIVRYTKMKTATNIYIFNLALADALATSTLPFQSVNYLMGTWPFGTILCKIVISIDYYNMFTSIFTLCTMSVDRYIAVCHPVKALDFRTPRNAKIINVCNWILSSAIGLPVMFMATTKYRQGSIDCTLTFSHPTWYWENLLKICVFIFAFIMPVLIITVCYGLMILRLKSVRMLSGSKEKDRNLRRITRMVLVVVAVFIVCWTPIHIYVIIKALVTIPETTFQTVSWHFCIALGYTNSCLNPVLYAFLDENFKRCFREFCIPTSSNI

B1: Nb69 (VHH)
VHH: QVQLQESGGGLVQAGGSLRLSCTASGLTLSNYAMGWFRQAPGKEREFVAADTWNGNTYHQDSVKGRFTISRDNAKNTVYLQMNYLKPEDTAVYYCAARGSRRSAYYSSSDYTYRGQGTQVTVSS
notes: Described as specific for the rat muscarinic receptor M3; Used as the mock fusion partner and as an exogenously added control; also called CA5669; mock Single-domain antibody
B1: no binding (β2AR365N).

B2: Nb33 (VHH)
VHH: QVQLQESGGGLVRPGGSRRLSCVDSERTSYPMGWFRRAPGKEREFVASITWSGIDPTYADSVADRFTISRDVANNTLYLQMNSLKHEDTAVYYCAARAPVGQSSSPYDYDYWGQGTQVTVSS
In the case of B2, the “IC50 ratio, Dmt1-Dalda: hMor1-34GS-Nb10 versus hMor1-34GS-Nb33 fusion ([3H]-diprenorphine competition, Sf9 membranes; Nb fused to the receptor)” value [1] is reported as 36 ratio, the “IC50 ratio, KGOP01: hMor1-34GS-Nb10 versus hMor1-34GS-Nb33 fusion” value [1] is reported as 20 ratio and the “IC50 ratio, naloxone: hMor1-34GS-Nb10 versus hMor1-34GS-Nb33 fusion” value [1] is reported as 2 ratio.

B3: Nb10 (VHH)
VHH: QVQLQESGGGLVQPGGSLRLSCAASGSFRSIVSMAWYRQAPGKQRELVASSNSGGSTNYADSVKGRFTISRDNAKNTVYLQMNSLKPEDTAVYWCNVQNRLPGFDAFSGRSIAETYWGQGTQVTVSS
notes: also called CA4910; irrelevant Single-domain antibody
B3: no binding [2].
